Columns and labels:
[1] = molecular target: T1, extracellular domain of human PD-L1 (Example 8) (human, UniProt Q9NZQ7 19-238); experiment: Kinetic Exclusion Assay (KinExA 3200), 1:1 model
T1 construct: extracellular domain; also called PD-L1 antigen; immobilized PD-L1
Description: Studies were designed to measure the free antibody in samples with a fixed antibody concentration and different concentrations of antigen PD-L1 at equilibrium, reaction mixtures were performed in PBS (pH 7.4) with 1 mg/ml BSA. […] The equilibrium titration and kinetics data were fit to a 1:1 reversible binding model using KinExA Pro software (version 4.2.10; Sapidyne Instruments) to determine the Kd.

[2] = molecular target: T2, Human BCMA labelled with a fluorescent dye (human, UniProt Q02223 1-54, limits assumed, labelled with a fluorescent dye (dye and site not stated)); experiment: MicroScale Thermophoresis, labelled BCMA at 2 nM
T2 construct: also called fluorescently labeled BCMA
T2 sequence (looked up): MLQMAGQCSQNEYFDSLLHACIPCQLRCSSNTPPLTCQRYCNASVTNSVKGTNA

[3] = molecular target: T1, extracellular domain of human PD-L1 …; experiment: competition ELISA in solution (Friguet), Scatchard plot
Description: First, mixtures of the trispecific antibody (Ab) at a fixed concentration and the PD-L1 antigen (Ag) at varying concentrations were incubated for sufficient time to reach equilibrium. Then the concentration of trispecific antibody, which remained unsaturated at equilibrium (not associated with PD-L1 antigen), was measured by a classical indirect ELISA using PD-L1 coated plates. […] The Kd was calculated from a Scatchard plot using the following equation:

[4] = molecular target: T3, recombinant human CD3 epsilon His-tag protein (Novoprotein, Cat. No. C578) (human, UniProt P07766 23-126); experiment: dual-binding ELISA: BCMA Fc coated, then CD3 epsilon His, anti-His detection
T3 construct: Bought protein; not shown: His-tag
T3 sequence (P07766 23-126): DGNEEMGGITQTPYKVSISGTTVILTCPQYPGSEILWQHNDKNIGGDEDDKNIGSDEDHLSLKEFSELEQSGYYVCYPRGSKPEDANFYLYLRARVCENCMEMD

T1 sequence (Q9NZQ7 19-238): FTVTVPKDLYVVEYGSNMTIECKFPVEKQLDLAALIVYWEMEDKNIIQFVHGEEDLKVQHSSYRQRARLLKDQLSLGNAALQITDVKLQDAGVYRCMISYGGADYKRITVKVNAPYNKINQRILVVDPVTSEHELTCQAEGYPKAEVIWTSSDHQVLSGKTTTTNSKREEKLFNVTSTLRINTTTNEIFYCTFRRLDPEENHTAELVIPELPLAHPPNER

B1: CDR1-007 (other)
heavy: QIQLVQSGPELKKPGETVKISCKASGYTFTDYSINWVKRAPGKGLKWMGWINTETREPAYAYDFRGRFAFSLETSASTAYLQINNLKYEDTATYFCALDYSYAMDYWGQGTSVTVSSASTKGPSVFPLAPSSKSTSGGTAALGCLVKDYFPEPVTVSWNSGALTSGVHTFPAVLQSSGLYSLSSVVTVPSSSLGTQTYICNVNHKPSNTKVDKRVEPKSCGGGGSEIVMTQSPSTLSASVGDRVIITCQASEDIYSLLAWYQQKPGKAPKLLIYDASDLASGVPSRFSGSGSGAEFTLTISSLQPDDSATYYCQGNYGSSSSSSYGAVFGQGTKLTVLGGGGGSGGGGSGGGGSGGGGSEVQLVESGGGSVQPGGSLRLSCTVSGIDLSSYTMGWVRQAPGKGLEWVGIISSGGRTYYASWAKGRFTISRDTSKNTVYLQMNSLRAEDTATYYCARGRYTGYPYYFALWGQGTTVTVSS
light: DIVLTQSPASLAMSLGKRATISCRASESVSVIGAHLIHWYQQKPGQPPKLLIYLASNLETGVPARFSGSGSGTDFTLTIDPVEEDDVAIYSCLQSRIFPRTFGGGTKLEIKRTVAAPSVFIFPPSDEQLKSGTASVVCLLNNFYPREAKVQWKVDNALQSGNSQESVTEQDSKDSTYSLSSTLTLSKADYEKHKVYACEVTHQGLSSPVTKSFNRGECGGGGSAVVTQEPSLTVSPGGTVTLTCGSSTGAVTTSNYANWVQQKPGKSPRGLIGGTNKRAPGVPARFSGSLLGGKAALTISGAQPEDEADYYCALWYSNHWVFGGGTKLTVLGGGGGSGGGGSGGGGSGGGGSEVQLVESGGGSVQPGGSLRLSCAASGFTFSTYAMNWVRQAPGKGLEWVGRIRSKANNYATYYADSVKGRFTISRDDSKNTLYLQMNSLRAEDTATYYCVRHGNFGDSYVSWFAYWGQGTTVTVSS
notes: also called CDR-007; trispecific CDR1-007
Kd [1]: 0.0217 to 0.042 nM
Kd [2]: 8.5 to 9.9 nM
Kd [3]: 0.11 nM
binding result [4]: binds

— patent US20200024358A1 (published 2020)
